Measured values reported in the DeepSol protein solubility set.

assay: soluble on expression in E. coli; label from the status in PepcDB or PDB records

| Sequence | soluble on expression in E. coli |
| --- | --- |
| MSLQFSFDPVSNAPMVSFPSTQQPDLEKLRFKFAPVLSRSFAFNGGSRTGTLYGVQVPYVDNSKEFSQYAAKLFEVYKSLGADKQFAVPTIGLINHTSTLEHNQTVNLALEAIVSELELFIESLKYSGRQQRLVDLEECLSILNCLKTVQFTLDSEEENSRAKFIDSLISWVNRTDGEPSEAVIAKVLGDGKQTPILENPYFWRLLCQLIIRGLFDQAVAAIEKSELLSYLADKCSATHTMVQDMVNLLQGYPRELEPVYREWKDLVLQLHLNWSQSEHKISIELASSLEDCLLIMCGNKSKIIYYSKTWYECYCGLMLYYIPSLQLSEEYLQLVLKEHPLDVTSPWEQACVSIITGKIYSILPVLDSLDSCTAAFTAAICEAKGLLENDLLDDGGLEVSNTGDEMFGLGNTMASYLLNQFALSIVTYEDKNLWAVAIGIIYLTPNYSDAAKRMMIAELLPHYPFQTNDDIEWMLTICAKWKLPQIARTIYRVLGQEALYLNNIIEAISNFSKAGEFEWVKEGHHHHHH | soluble |
| MSLQLPISQYNELLQKKLEKLTALLHPFNAPDIQVFDSPTSHYRMRAEFRIWHEQDDFYHIMFDQATLQRYRVDEFPIASMLINRMMQTLLPLLKQQEVLHKKLFQIDYLSTLSNKIIVSLLYHKTLTEEWESAAKNLKDLLEKQDFDVQIIGRASKQKICFEQDYVDEVLPVNGRNYVYRQVENSFTQPNATVNCKMLEWAIDCTQNSEGDLLELYCGNGNFSIALAQNFRKVLATEIAKPSVAAAQFNIAENKVDNLQIIRMSAEEFTQAMNGVRAFNRLKGIDLKSYECNTIFVDPPRAGLDPDTVKLVQNYDRILYISCNPHTLCDNLVELSKTHRIEKAALFDQFPYTDHMESGLWLIRKEGHHHHHH | soluble |
| MSLQNKTVFVGISGGVDSAVSALLLKQQYREVIGIFMECWDNTLNNDQLGHRAFNEHKSGCSSKEDFREAQAIAQLLGIKLIKQNLVEPY | soluble |
| MSLQPTAGETTFERVRRTRKLRIGAVNGGAPYYYRDLASGQWKGFYIDICKALADEMECELDVTETTWGNSVLDLQAGKTDVFFGLNPTPKRALVVDFSVPVFANAFTFITRKGFERKTWAEMNDPAVRIAVDAGSSHDAVVTRLAPKAQITRLKGADDATAALQAGRVDAQCLVFILSLTVLKKNPALGQFTLPTPIFSTTSNAGFRREADKTWRDYVSTWIEFNKGMGFIRSAIIGNLESEGHHHHHH | not soluble |
| MSLQQALINFYYQFHTKQHYFLCHDILEDAWKAENNYSKQDAVVSLILFATACYHYRRNNLKGAYKSFNKSKEIIQNAKDRDALYLNLNDYQLLIEQQIAKLNAAKPFSSVILPITPVFERIIKANYPDYDYNQETATDPFIVDHHMRRDRSEVIAAKEEAIQLRKHRRNEGHHHHHH | soluble |
| MSLQSFENEIAFITGGASGAGFGQAQVFGRAGAKIVVADVRAEAVERAVAALKAEGIVAHGLVLDITDRQAYAGAADEVEQVFGAAPTLLFNTAGVNSFGPVEDTSYDDFDWIVGVNLGGVINGMVTFVPRMIASGRPGHIVTTSSLGGLMGSALAAPYSAAKAAVINLMESYRQGLDKHGIGVSVLCPANIKSNIAEASRLRPAQFGKSGYVENEESIASLHSIHQHGMDPVELAEHVKAGIVANQLYIIPYPEAKDGLRQHFDAIVDAVLPLEADPEGARARTEALNAWAADRARVFMEKNAAQKAEGHHHHHH | not soluble |
| MSLQVQKSFKEQTAYGKLYLVPTPIGNLQDMTFRSIAILKKVDYIAAEDTRNTGLLLKHFDISTRQLSFHEHNAFEKIPDLLKLLKSGNSLAQVSDAGLPSISDPGYDLVRAAIQEDIAVIALPGASAGITALIASGLAPQPHIFYGFLPRKSGQQKSFFEEKKYYPETQIFYESPYRVQETLENILSVYGDRQIVLTRELTKLYEEYQRGNISEILTYIAENPLKGECLLLVSGYDHQEKEQQVSEVELKHLVEALVKEGMKPNQAIKKVAKENDFNRQELYQLYHELQEGHHHHHH | soluble |
| MSLQWKPAGDKIRTFWAEKVDVNNVLPEYPRPIMERSDWQNLNGLWNYAVLPLGQSAPTTFDGKILVPFAIESSLSGVGKTLGMEKELWYQRAFNIPSSWRGKRVLLHFGAVDWKTEVWVNNIKVGEHTGGFTPFTFDVTEALEKSTNTLTVKVWDPTDKGFQPRGKQVSNPRGIWYTPVSGIWQTVWLEPVSEHYIAGIKTTPDIDTNKIKVKVETDSNRQSDRLEVKVFDGKHLVAMGTSINGLPVEIPMPADAKLWSPDSPFLYQMEVSLISAGKLVDQIKSYVAMRKYSIKRDEHGIVRLQLNNKDLFQFGPLDQGWWPDGLYTAPTDEALRYDIEKTKDFGFNMIRKHIKVEPARWYTYCDQIGLIVWQDMPSGDKSPEWQNRKYFEGTELTRSAESEETYRKEWKEVIDCLYSYPCIGTWVPFNEAWGQFKTQEIAEWTKQYDPSRLVNPASGGNHYTCGDMLDLHHYPGPEMFLYDAQRATVLGEYGGIGLVLKDHLWEPNRNWGYIQFNTSAEATAEYLKYAGILKDMISRGFSAAVYTQTTDVEVEVNGLMTYDRKVIKLDESKLKKMNTEICNSLKEGHHHHHH | soluble |
| MSLQYIVVTGGVISGLGKGTITSSIGHILKDSGFKVSSVKIDPYINYDAGTMNPYQHGEVFVLDDGSEVDLDLGNYERFMDINLSWKNNITTGKVYLEVIEKERHGDYLGKTVQIIPHITDEIKRRIRDVATSSKADFVLIEVGGTVGDIESMPFLEAVRQLKREENNVIFAHVTLVPEIGPTEEQKTKPTQHSVTALREIGIQPDIIFARSKNRLLEETKKRISLFTDVPEGGIISVYDVENVYLLPEVMVNEGFISYLSKLSGKEIKYRDSWKAYTENIKHPKDRVKIAIVGKYVDLHDAYISHKEAFSHVTGNTGIAVDIKWLDSEKVKDDQSMLSDVDAILIPGGFGYRGVEGKIAATRFALENHIPFLGICLGFQVAVIEIARDIIGLQNANSTEFDPATKYPVIDILPEQKGIKDLGGTMRLGSKKVLIKDGTLAKRIYGTDTIYERHRHRYEVNPNYISIIEKAGFVFSGTDEDGIRMEILEKKGDESFIATQYHSEFKSRPLNPSRVHLHLVQQALIYKKNKDIGEAVKLRSSVEGHHHHHH | soluble |
| MSLRAVRLHAKWDPRPEFKLGPKDIEGKLTWLGSKVWRYPEVRVEEVPEPRIEKPTEIIIKVKACGICGSDVHMAQTDEEGYILYPGLTGFPVTLGHEFSGVVVEAGPEAINRRTNKRFEIGEPVCAEEMLWCGHCRPCAEGFPNHCENLNELGFNVDGAFAEYVKVDAKYAWSLRELEGVYEGDRLFLAGSLVEPTSVAYNAVIVRGGGIRPGDNVVILGGGPIGLAAVAILKHAGASKVILSEPSEVRRNLAKELGADHVIDPTKENFVEAVLDYTNGLGAKLFLEATGVPQLVWPQIEEVIWRARGINATVAIVARADAKIPLTGEVFQVRRAQIVGSQGHSGHGTFPRVISLMASGMDMTKIISKTVSMEEIPEYIKRLQTDKSLVKVTMLNEGHHHHHH | soluble |
| MSLREIHVDTLTDAVAKLCIDACHRLPDNLVESFHKAAEKEVSPLGKSVLMKLIDNDRIARENDVSYCHDTGLAIVFVEVGQDVHIVGGSYEDAIQAGVRKGYAEGYMRKSVVSDPLLRVNSNDNTPAVVHTEIVPGDNIEVTVVPKGGGSENWSTMKFLLPGEGAEGVKKFVLSAIEAAGGAACPPLTVGVGIGGSFDKVTAIAKKAILRDIGVHHKEPHVAKLEAELLDAINKTGIGPQGYGGVNTALWVSVETYACHITALPVAVNIQCHAGRRATAVIEGHHHHHH | soluble |
| MSLREYRYSDAHLHYVDFFQESEGMPALIKAMDAAGVEQSMISGIPVAKKWHEDEPKRPRYYAGDDADAYWYSATDTYVAAALQQLPSDQRKRFHPFLSGFNPVDKNAVSHIERMLDLYPGLWQGIGEVFTRHDDLTALTSGDTPRANNEAMTRIYHLAAERDLPVLLHSNITSKRERNPLYLAEIEEPLRNHPHTRFIWAHAGSSMEIHRHQKQMDFLLPVLTRLLEDYPNLYVDLSWSVLQPYLLDEQGAPRKEWLALVEKYPERFMLGSDVVGRFGSLGEQMHGFKPFLDALPESVAHKVARENFLAVLPKARHEGHHHHHH | soluble |
| MSLRGGETLEYDPDVLDENVEIEVGDVVEIKKFEKTEVYVSGYVSRPGVYEISPKENVTLEKLLSMAGGIKGTLEEVDSIVVTRDGSVITLSPNNLDFSVKPGDVVNVKEFVPKKAYVLGYVRNPGLYTFGKNEAFTLRNLIAKAGGFVDEGQVVSVKVAGKEYSEGHHHHHH | soluble |
| MSLRIAIIITQKTNDLHATVPCFLWRKARYAVDLISAEAKASIMLEMGIHVRCDNTLSKTNFNQYTAAFIPHGNTTRLVEIDKLRKDLEKFVYKPKGPMRWLFSSGNGACVLKEFDLIAPDQLVTVQNEKEMVKLLGKNFIKQPVHVDKNIISCANSCGLTKFSFKVIEELSGIELARKTANLVDHIYKGEGHHHHHH | soluble |
| MSLRINGQAELSGANTFLQAQVQLTGEVEIKLQKPLQLTAAKAATEIHLRIPDFVVWKDLFESTPFAVPAPLHVLTGDIELDVHAQLTDLDSPLQADATAQSRLSSKNQKLFVKATADLETLGKILKPRGLKVHADVVLQDVHLQAPPLRLAVPPQVLPDKRFVMRKDLDIIEEEKPAPTSRIPFELLWSVNIKTEKPVLISSNLLQSPVPVALDMQVQSDRKPQGKVMVQSFPFEFFRKKATVNNVDLIFHPDTVAPELSGKISYSNPEVNIRILLLGNTQRPIVNLESDPQLNQQQILSVLLFDKSLDELNEDEVNSTSNMSRAVSDGALGLFSLMFLSSTPIQSISYDPNSQSYTARMRLDDNTTFSMQSNMTEQRQFTLRRRLGGNWSVRTELSQEDSRADVVQTLLEWMRRFEGHHHHHH | not soluble |
| MSLRISILQNNNKEVEAVKSEYESKLSKIQNDLDQQTIYANTAQNNYEQELQKHADVSKTISELREQLHTYKGQVKTLNLSRDQLENALKENEKSWSSQKESLLEQLDLSNSRIEDLSSQNKLLYDQIQIYTAADKEVNNSTNGPGLNNILITLRRERDILDTKVTVAERDAKMLRQKISLMDVELQDARTKLDNSRVEKENHSSIIQQHDDIMEKLNQLNLLRESNITLRNELENNNNKKKELQSELDKLKQNVAPIESELTALKYSMQEKEQELKLAKEEVHRWKKRSQDILEKHEQLSSSDYEKLESEIENLKEELENKERQGAEAEEKFNRLRRQAQERLKTSKLSQDSLTEQVNSLRDAKNVLENSLSEANARIEELQNAKVAQGNNQLEAIRKLQEDAEKASRELQAKLEESTTSYESTINGLNEEITTLKEEIEKQRQIQQQLQATSANEQNDLSNIVESMKKSFEEDKIKFIKEKTQEVNEKILEAQERLNQPSNINMEEIKKKWESEHEQEVSQKIREAEEALKKRIRLPTEEKINKIIERKKEELEKEFEEKVEERIKSMEQSGEIDVVLRKQLEAKVQEKQKELENEYNKKLQEELKDVPHSSHISDDERDKLRAEIESRLREEFNNELQAIKKKSFDEGKQQAMMKTTLLERKLAKMESQLSETKQSAESPPKSVNNVQNPLLGLPRKIEENSNSPFNPLLSGEKLLKLNSKSSSGGFNPFTSPSPNKHLQNDNDKRESLANKTDPPTHLEPSFNIPASRGLISSSSTLSTDTNDEELTSNNPAQKDSSNRNVQSEEDTEKKKEGEPVKRGEAIEEQTKSNKRPIDEVGELKNDEDDTTENINESKKIKTEDEEEKETDKVNDENSIEGHHHHHH | soluble |
| MSLRKMKRFYIASEEEIKTGKTTDIYFLRTRKILETKNIRKKVLADVTTTSLPENWKWGVLVGVEEVAKLLEGIPVNVYAMPEGTIFHPYEPVLQIEGDYADFGIYETALLGMLSQASGIATAALRIKIAAKFKPVYSFGIRHMHPAIAPMIDRAAFIGGCDGVSGVLGAEMMGEKAVGTMPHALIITVGDQVKAWKYFDEVIEKEVPRIALVDTFYDEKIEAVMAAEALGKKLSAVRLDTPSSRRGNFRRIIEEVKWELKIRGYDWVKILISGGLDEEKIKEIVDVADAFGVGSAIASAKPIDFALDIVEVEGKPIAKRGKLSGRKQVYRCENGHYHVVPADKKLERCPVCNAKVEPLLKPIIENGEIVVEFPKARDIREYVLEQAKKFNLEIEGHHHHHH | not soluble |
